From patent US20040092720A1 (US Dept. of Health and Human Services, published 2004)

Target: T1, recombinant human IL-6 (human, UniProt P05231 30-212, labeled with radioactive iodine)
T1 construct: Labeled probe in solution, added to wells that carry the synthetic peptides; also called IL-6 ligand; Interleukin-6
Assay: radioiodinated IL-6 on peptide array

Binder | Counts/minute bound
QISDHISQSCGSGQMKMFQEVSAA [Peptide E86] | 1240 counts/minute
LTNDRYLATLTVRNLVGKSDAAVL [Peptide E40] | 4800 counts/minute
SDWSEEASGITYEDRPSKAPSFWY [Peptide E32] | 1160 counts/minute
ERPEDLQLVDHVDGGDGILPRQQY [Peptide E80] | 1210 counts/minute
KKYILEWCVLSDKAPCITDWQQED [Peptide E46] | 1710 counts/minute
KPNPPHNLSVINSEELSSILKLTW [Peptide E23] | 1410 counts/minute
WKTLPPFEANGKILDYEVTLTRWK [Peptide E36] | 1460 counts/minute
SVIILKYNIQYRTKDASTWSQIPP [Peptide E26] | 2830 counts/minute
PFTEYVFRIRCMKEDGKGYWSDWS [Peptide E30] | 1260 counts/minute
TRWKSHLQNYTVNATKLTVNLTND [Peptide E38] | 3650 counts/minute
YRTKDASTWSQIPPEDTASTRSSF [Peptide E27] | 1160 counts/minute
TVVHSGYRHQVPSVQVFSRSESTQ [Peptide E77] | 1250 counts/minute
IWPNVPDPSKSHIAQWSPHTPPRH [Peptide E66] | 1200 counts/minute
TEGHSSGIGGSSCMSSSRPSISSS [Peptide E73] | 1060 counts/minute
SHIAQWSPHTPPRHNFNSKDQMYS [Peptide E67] | 1200 counts/minute
QLPVDVQNGFIRNYTIFYRTIIGN [Peptide E55] | 4360 counts/minute
RSSFTVQDLKPFTEYVFRIRCMKE [Peptide E29] | 1320 counts/minute
TQGYRTVQLVWKTLPPFEANGKIL [Peptide E35] | 1170 counts/minute
ISSSDENESSQNTSSTVQYSTVVH [Peptide E75] | 1120 counts/minute
VSVVEIEANDKKPFPEDLKSLDLF [Peptide E70] | 1300 counts/minute
FVNIEVWVEAENALGKVTSDHINF [Peptide E20] | 1410 counts/minute
INSEELSSILKLTWTNPSIKSVII [Peptide E24] | 1010 counts/minute

Binder | Counts/minute bound
ESTQPLLDSEERPEDLQLVDHVDG [Peptide E79] | 1380 counts/minute
QNTSSTVQYSTVVHSGYRHQVPSV [Peptide E76] | 1200 counts/minute
FQATHPVMDLKAFPKDNMLWVEWT [Peptide E43] | 1300 counts/minute
AAVLTIPACDFQATHPVMDLKAFP [Peptide E42] | 1120 counts/minute
QIPPEDTASTRSSFTVQDLKPFTE [Peptide E28] | 1200 counts/minute
DSSHTEYTLSSLTSDTLYMVRMAA [Peptide E58] | 1350 counts/minute
TVNATKLTVNLTNDRYLATLTVRN [Peptide E39] | 4360 counts/minute
QHESSPDISHFERSKQVSSVNEED [Peptide E83] | 1250 counts/minute
HINFDPVYKVKPNPPHNLSVINSE [Peptide E22] | 1730 counts/minute
CMKEDGKGYWSDWSEEASGITYED [Peptide E31] | 1730 counts/minute
QMYSDGNFTDVSVVEIEANDKKPF [Peptide E69] | 1190 counts/minute
GKNEAVLEWDQLPVDVQNGFIRNY [Peptide E54] | 1310 counts/minute
PPRHNFNSKDQMYSDGNFTDVSVV [Peptide E68] | 1230 counts/minute
PKFAQGEIEAIVVPVCLAFLLTTL [Peptide E62] | 2790 counts/minute
GKILDYEVTLTRWKSHLQNYTVNA [Peptide E37] | 1790 counts/minute
RQQYFKQNCSQHESSPDISHFERS [Peptide E82] | 1090 counts/minute
KDGPEFTFTTPKFAQGEIEAIVVP [Peptide E61] | 1390 counts/minute
SSCMSSSRPSISSSDENESSQNTS [Peptide E74] | 1130 counts/minute
HVDGGDGILPRQQYFKQNCSQHES [Peptide E81] | 1100 counts/minute
KLTWTNPSIKSVIILKYNIQYRTK [Peptide E25] | 10300 counts/minute
LDLFKKEKINTEGHSSGIGGSSCM [Peptide E72] | 1440 counts/minute
VEWTTPRESVKKYILEWCVLSDKA [Peptide E45] | 1390 counts/minute

Binder | Counts/minute bound
YLRGNLAESKCYLITVTPVYADGP [Peptide E49] | 1540 counts/minute
KAYLKQAPPSKGPTVRTKKVGKNE [Peptide E52] | 1820 counts/minute
IIGNETAVNVDSSHTEYTLSSLTS [Peptide E57] | 1230 counts/minute
KGPTVRTKKVGKNEAVLEWDQLPV [Peptide E53] | 1640 counts/minute
KKPFPEDLKSLDLFKKEKINTEGH [Peptide E71] | 2690 counts/minute
TVRNLVGKSDAAVLTIPACDFQAT [Peptide E41] | 1100 counts/minute
ADGPGSPESIKAYLKQAPPSKGPT [Peptide E51] | 1190 counts/minute
IRNYTIFYRTIIGNETAVNVDSSH [Peptide E56] | 1640 counts/minute
IVVPVCLAFLLTTLLGVLFCFNKR [Peptide E63] | 4520 counts/minute
QQEDGTVHRTYLRGNLAESKCYLI [Peptide E48] | 1080 counts/minute
TYEDRPSKAPSFWYKIDPSHTQGY [Peptide E33] | 1220 counts/minute
LTTLLGVLFCFNKRDLIKKHIWPN [Peptide E64] | 4500 counts/minute
NEEDFVRLKQQISDHISQSCGSGQ [Peptide E85] | 1110 counts/minute
ENALGKVTSDHINFDPVYKVKPNP [Peptide E21] | 1120 counts/minute
VPSVQVFSRSESTQPLLDSEERPE [Peptide E78] | 1230 counts/minute
RMAAYTDEGGKDGPEFTFTTPKFA [Peptide E60] | 1450 counts/minute
KAFPKDNMLWVEWTTPRESVKKYI [Peptide E44] | 1180 counts/minute
CYLITVTPVYADGPGSPESIKAYL [Peptide E50] | 1260 counts/minute
FNKRDLIKKHIWPNVPDPSKSHIA [Peptide E65] | 5740 counts/minute
SFWYKIDPSHTQGYRTVQLVWKTL [Peptide E34] | 1140 counts/minute
FERSKQVSSVNEEDFVRLKQQISD [Peptide E84] | 1020 counts/minute
